Columns and labels:
Assay in all cases: ITC
G3BP1_(NTF2) V11A mutant = G3BP1_(NTF2) V11A mutant (human, UniProt Q13283 1-139, V11A)
G3BP1_(NTF2) F33A mutant = G3BP1_(NTF2) F33A mutant (human, UniProt Q13283 1-139, F33A)
[1] = biological target: G3BP1_(NTF2) F124A mutant (human, UniProt Q13283 1-139, F124A)
G3BP1_(NTF2) Q18A mutant = G3BP1_(NTF2) Q18A mutant (human, UniProt Q13283 1-139, Q18A)
[2] = biological target: NTF2-like domain of human G3BP1 (residues 1-139) (human, UniProt Q13283 1-139)
Sequence of NTF2-like domain of human G3BP1 (residues 1-139) (Q13283 1-139): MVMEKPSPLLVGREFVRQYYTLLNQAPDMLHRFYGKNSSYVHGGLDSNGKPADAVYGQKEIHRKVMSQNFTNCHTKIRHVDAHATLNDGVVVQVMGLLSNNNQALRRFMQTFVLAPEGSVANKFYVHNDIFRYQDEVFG

Sequence of G3BP1_(NTF2) V11A mutant (Q13283 1-139 V11A): as the sequence (Q13283 1-139) above, with V11A counted along it
Sequence of G3BP1_(NTF2) F33A mutant (Q13283 1-139 F33A): as the sequence (Q13283 1-139) above, with F33A counted along it
Sequence of G3BP1_(NTF2) F124A mutant (Q13283 1-139 F124A): as the sequence (Q13283 1-139) above, with F124A counted along it
Sequence of G3BP1_(NTF2) Q18A mutant (Q13283 1-139 Q18A): as the sequence (Q13283 1-139) above, with Q18A counted along it

MSDNGPQNQRNAPRITFGGPSDSTG [SARS-CoV-2 N_(1–25) peptide (residues 1-25 of the N protein)]
fold reduction of binding against wild-type G3BP1_(NTF2) (G3BP1_(NTF2) V11A mutant): ~10 fold | dH (G3BP1_(NTF2) F33A mutant): -21.3 kcal/mol | fold reduction of binding against wild-type G3BP1_(NTF2) [1]: ~20 fold | dH (G3BP1_(NTF2) Q18A mutant): -15.1 kcal/mol

MSDNGPQNQRNAPRITFTGPSDSTG [SARS-CoV-2 N_(1–25) peptide, G18T mutant]
fold reduction of binding affinity against wild-type N_(1–25) [2]: ~6 fold

MSDNGPQNQRNAPRIAFGGPSDSTG [SARS-CoV-2 N_(1–25) peptide, T16A mutant]
fold reduction of binding against wild-type N_(1–25) [2]: ~3 fold

MSDNGPQNQRNAPRATFGGPSDSTG [SARS-CoV-2 N_(1–25) peptide, I15A mutant]
fold reduction of binding against wild-type N_(1–25) [2]: > 10 fold

Source: article PMC8882607 (Journal of Molecular Biology, 2022)
